Where two headings read alike, the source gives them in different places. Bounds are passed on as bounds.

Assay [1] concerns the target mesothelin on CHO-MSLN cells (UniProt Q13421). Kind of assay: absorption (depletion) of sCA125 on cells; sCA125 preparation absorbed on CHO-MSLN cells or CHO-K1 parental cells; what is left in the supernatant.
A further assay concerns the target rituximab. Briefly: ELISA; data not shown; rituximab and gimsilumab with sCA125, binding of CD16a-biotin.
A further assay deals with gimsilumab (human). Described as above.
The target in assay [2] is farletuzumab, humanized IgG1 monoclonal antibody to folate receptor alpha (human (humanized IgG1)). Briefly: ELISA; unlabeled farletuzumab incubated alone or with sCA125 or HSA, probed with biotinylated CD16a, CD32a or CD64a; percent inhibition of Fc receptor binding compared to control.
Assay [3] has the same target. The assay is described as above. This is another data set of the same source.

farletuzumab, humanized IgG1 monoclonal antibody to folate receptor alpha (human (humanized IgG1)), sequence (heavy, as listed by the source, chain 1 of 2): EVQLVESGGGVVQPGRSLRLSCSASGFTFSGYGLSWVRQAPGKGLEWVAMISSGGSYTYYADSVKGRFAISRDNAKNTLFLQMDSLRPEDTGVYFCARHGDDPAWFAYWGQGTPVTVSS
farletuzumab, humanized IgG1 monoclonal antibody to folate receptor alpha (human (humanized IgG1)), sequence (light, as listed by the source, chain 2 of 2): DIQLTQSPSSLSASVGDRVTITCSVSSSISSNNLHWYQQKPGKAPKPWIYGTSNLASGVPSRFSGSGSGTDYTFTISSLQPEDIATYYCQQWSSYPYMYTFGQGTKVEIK
UniProt Q13421, sequence (Q13421 other isoform, or with tags, fused parts or gaps): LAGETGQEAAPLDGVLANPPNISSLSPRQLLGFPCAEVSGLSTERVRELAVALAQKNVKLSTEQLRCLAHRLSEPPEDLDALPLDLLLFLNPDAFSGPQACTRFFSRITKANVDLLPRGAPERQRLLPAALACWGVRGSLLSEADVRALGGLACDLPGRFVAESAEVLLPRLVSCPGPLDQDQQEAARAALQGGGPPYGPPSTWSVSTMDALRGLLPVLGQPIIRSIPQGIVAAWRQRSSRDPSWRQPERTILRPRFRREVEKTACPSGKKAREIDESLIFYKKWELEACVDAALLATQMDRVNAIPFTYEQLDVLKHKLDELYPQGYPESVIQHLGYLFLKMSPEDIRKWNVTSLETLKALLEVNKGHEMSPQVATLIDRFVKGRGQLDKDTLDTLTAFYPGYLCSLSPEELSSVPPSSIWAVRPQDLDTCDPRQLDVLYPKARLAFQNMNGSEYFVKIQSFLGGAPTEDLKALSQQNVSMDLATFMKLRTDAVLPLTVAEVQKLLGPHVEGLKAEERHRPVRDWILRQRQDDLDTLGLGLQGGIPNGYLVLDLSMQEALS
gimsilumab (human), sequence (heavy, as listed by the source, chain 1 of 2): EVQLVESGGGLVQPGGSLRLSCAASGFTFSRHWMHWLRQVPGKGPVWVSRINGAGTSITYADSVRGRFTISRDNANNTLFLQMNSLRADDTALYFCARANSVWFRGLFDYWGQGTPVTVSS
gimsilumab (human), sequence (light, as listed by the source, chain 2 of 2): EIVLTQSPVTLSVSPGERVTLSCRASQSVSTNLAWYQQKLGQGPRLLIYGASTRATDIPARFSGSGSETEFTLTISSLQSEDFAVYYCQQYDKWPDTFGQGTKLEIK

With “soluble CA125 (sCA125), tumor-shed antigen CA125/MUC16 (from UniProt Q8WXI7 1-14507) (natural protein)”, in assay [1], the percent of sCA125 removed by absorption on CHO-MSLN cells is 98%. The percent inhibition of CD16a-biotin binding to the antibody in the assay with rituximab and in the assay with gimsilumab (human) was less than 50% throughout. The percent inhibition of CD16a-biotin binding to farletuzumab was 38 to 50% in assay [2] and 46% in assay [3]. In assay [3], this substance showed a percent inhibition of CD32a-biotin binding to farletuzumab of 12%.

(Values after publication PMC5581011.)
